Consider six molecules from patent publication US20250011423A1 (ASCENDO BIOTECHNOLOGY, published 2025).

Where a chain is given by its changes, count along the chain named.

T1: human TREML1 ECD (human, UniProt Q86YW5 16-162)
T1 construct: Any tags are not described; also called soluble TREML1; soluble TLT1
T1 sequence: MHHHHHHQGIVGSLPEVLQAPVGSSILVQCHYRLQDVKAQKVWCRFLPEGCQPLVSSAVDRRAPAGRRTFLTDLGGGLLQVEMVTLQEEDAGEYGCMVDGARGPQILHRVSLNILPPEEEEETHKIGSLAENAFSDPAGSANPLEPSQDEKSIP

T2: mouse TREML1 ECD (mouse, UniProt Q8K558 21-175)
T2 construct: also called murine TREML1 ECD
T2 sequence: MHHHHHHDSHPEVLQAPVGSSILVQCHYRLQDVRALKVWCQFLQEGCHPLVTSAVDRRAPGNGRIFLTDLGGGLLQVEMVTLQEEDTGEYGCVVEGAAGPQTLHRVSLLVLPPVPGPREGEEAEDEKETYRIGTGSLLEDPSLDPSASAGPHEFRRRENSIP

B1: Anti-TREML1 Antibody Clone 28A9 (antibody, V domains shown)
VH: EVQLQQSGPELVKPGASVKMSCKASGYTFTNYVMHWVKQKPGQGLEWIGYFNPYNGHAKYSEKFTGKATLTSDRSSSTAYMELNSLTSEDSAVYYCTRDFNYYVGAMDYWGQGTSVTVSS
VL: DVVMTQSPLSLPVNLGDHASISCRSSQSLIHSNGNTYLHWYLQKPGQSPKLLVYQVSKRFSGVPDRFSGSGSGTDFTLKISRVEAEDLGVYFCSQSTHIWTFGGGTTLEIK
notes: It was detected with anti-mouse IgG
B2: Anti-TREML1 Antibody Clone 26A6 (antibody, V domains shown)
VH: EVKLVESGGGLVQPGGSRKLSCAASGFTFSDYGMAWVRQAPGKGPEWIAFISNLAYRIYYADTVTGRFTISRENAKNTLYLEMSSLRSEDSAIYYCVREDYGNNGAMDYWGQGTSVTVSS
VL: DVLMTQTPLSLPVSLGDQASISCRSSQSIVHSNGNTYLEWYLQKPGQSPKLLIYKVSNRFSGVPDRFSGSGSGTDFTLKISRVEAEDLGVYYCFQGSHVPPTFGGGTKLEIK
notes: It was detected with anti-mouse IgG, so it is a mouse antibody
B3: Anti-TREML1 Antibody Clone 18D8 (antibody, V domains shown)
VH: EVQVQQSGPELVNPGASVRLSCKASGYIFTDYVIHWVRQKPGQGLEWIGYMNPYTDGPKYSDKIKDKAILTSDRSSNTVYMELRSLTSEDSAVYFCARDFNYYVGAMDFWGQGTSVTVSS
VL: DVVLTQTPLSLPVSLGDQASVSCRSSQSLLHSNGNTYLHWYLQKPGQSPKLLIYKVSNRFSGVPDRFTGSGSGTDFTLKISRVEAEDLGVYFCSQSTHIWTFGGGTKLEIK
notes: as for B1
B4: Anti-TREML1 Antibody Clone 27D3 (antibody, V domains shown)
VH: DVQLQQSGPELVKPGASVKMSCKASGYTFTEYVIHWVKQRPGQGLEWFGYFNPYTGGSKFNEKFKDKATLTSDRSSNTVYMELYSLTSEDSAVYYCARDFNYYVGAMDYWGQGTSVTVSS
VL: B3 VL with V3A, V21I, L30V, P45S, T68S, G73V, D75E, T97S, K107R
notes: as for B1
B5: Anti-TREML1 Antibody Clone 23F10 (antibody, V domains shown)
VH: EVQLQQSGPELVRPGASVKVSCKASGYIFTDYVIHWVKQKPGQGLEWFGYINPYTGGPKYSETARGKATLTSDSSSNTAYMVLTSLTSDDSAVYYCTRDFNYYVGAMDFWGQGTSVTVSS
VL: AAVLTQTPLSLPVSLGDQASISCRSTQSLVHSNGNTYVHWYLQKAGQSPKLLIYKVSNRFSGVPDRFSGSGSGTDFTLKISRVEAEDLGVYFCSQSTYVWTFGGGTKLEIE
notes: as for B1
B6: Anti-TREML1 Antibody Clone 29F4 (antibody, V domains shown)
VH: B5 VH with R65K, D89E
VL: B5 VL with A1G, R24K, S68I
notes: as for B1

One test deals with T1, human TREML1 ECD. Kind of test: solid phase binding assay (ELISA), antigen coated. The procedure:
(§1) To investigate the TREML1/I-domain of CD11 b interaction, 5 μg/ml of recombinant I-domain of CD11 b (SEQ ID: 1) and BSA (negative control) proteins were coated separately on 96 well plates and incubated overnight at 4° C. Plates were added the blocking buffer (2% BSA in PBS) to avoid the nonspecific binding for 2 hours (hrs) at room temperature. A serial diluted TREML1 ECD was added and allowed to incubate at room temperature for 2 hrs. 1ug/ml of anti-TREML1 antibody (MAB2394, R&D systems) was added for 1 hr. Next, the secondary antibody with HRP labeling, anti-Rat IgG-HRP, was added to the plate and incubated for 30 minutes at room temperature. Plates were washed thrice with 0.05% tween 20 PBS buffer (PBST) between each step. Finally, TMB substrate was added and incubated for 10-15 min to detect HRP labeling antibody. After that, a stop solution of 1N HCL was added to stop the reaction. Absorbance at OD450/540 nm was measured by a microplate reader. To measure the half-maximal saturation binding of anti-TREML1 antibodies to TREML1, 5 μg/ml of human TREML1 ECD (SEQ ID: 2) or mouse TREML1 ECD (SEQ ID: 3) were coated on 96 well plates and incubated overnight at 4° C. Plates were added the blocking buffer (2% BSA in PBS) to avoid the nonspecific binding for 2 hr at room temperature. A serial diluted anti-TREML1 antibody was added and allowed to incubate at room temperature for 2 hr. Next, the secondary antibody with HRP labeling, anti-mouse IgG-HRP, was added to the plate and incubated for 30 minutes at room temperature. Plates were washed three times with 0.05% tween20 PBS buffer (PBST) between each step. Finally, TMB substrate was added and incubated for 10-15 min to detect HRP labeling antibody. After that, a stop solution of 1N HCL was added to stop the reaction. Absorbance at OD450/540 nm was measured by a microplate reader.
(In general: ELISA stands for enzyme-linked immunosorbent assay.)
With B1, the EC50 came to 0.3 nM.

B2 came in with an EC50 of 0.32 nM.

With B3, the EC50 was 0.25 nM.

The molecule B4 came in with an EC50 of 0.31 nM.

For the molecule B5, the half-maximal effective concentration (EC50) stood at 0.27 nM.

As to B6, the EC50 was determined as 0.18 nM.

The target in a further test is T2, mouse TREML1 ECD. As to the kind of experiment: solid phase binding assay (ELISA), antigen coated. As to the method: as §1
The molecule B1 returned an EC50 of 2.48 nM.

B2 gave a concentration giving a half-maximal response (EC50) of 0.4 nM.

In the case of B3, the concentration giving a half-maximal response (EC50) is 33.4 nM.

Molecule B4 registered a 50% effective concentration (EC50) of 24.9 nM.

The molecule B5 showed an EC50 of 0.82 nM.

In turn, B6 showed an EC50 of 0.94 nM.

A word on the EC50: it is the concentration giving half of the maximal effect.
